± gives the standard deviation of the averaged measurements.
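Note: ATP exposure 15 min at 22 °C before imaging.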

The data set has as its system ATP. In words: switch fluorescence ratio, 500 uM ATP over buffer (Cy3 cluster intensity, sum of 5 cycles each) (fold (ratio)); higher = stronger signal-on switching upon ATP binding; sequences stand for … in TCGTCGGCAGCGTCAGATGTGTATAAGAGACAGTTTTTTTTTTTTTTTTTTTTTTTTT…TC. To be noted: aptamer strand: ATP DNA aptamer (quencher-CACCTGGGGGAGTATTGCGGAGGAAGG + anchor), 100 nM annealed; ATP concentration: 500 uM. In short, it runs like this: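 Five buffer/ATP imaging cycles were run on Cy3-labelled switching-strand clusters on a modified Illumina MiSeq flow-cell, with NaOH stripping and re-annealing between cycles. In each cycle, clusters annealed to 100 nM quencher-labelled ATP aptamer were imaged in selection buffer, then after 15 min with 500 uM ATP at 22 °C. Per cluster, the fluorescence ratio is summed target-cycle over summed buffer-cycle Cy3 intensity, averaged per switch-domain sequence. Only clusters within 100-1000 RFU were kept.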
Take TATAGTAACT: the switch fluorescence ratio came to 1.03 ± 0.041. In the case of TTTATGTTAT it was 1.1 ± 0.097; in that of CGTGAAGCGT, 0.998 ± 0.039; in that of TAGCGGGGTT, 0.9757 ± 0.0054. As for AGGGTGTTGG, the switch fluorescence ratio stood at 1 ± 0.017. Take TTTTGCGATT: the switch fluorescence ratio was 1.015 ± 0.0065. As for GATGCGACCA, the switch fluorescence ratio amounted to 1.04 ± 0.065.

As for GGGATTAACT, the switch fluorescence ratio was determined as 1 ± 0.031. In the case of TCGATCCCGA it was 1.017 ± 0.0072. Turning to ACGGCATTGC, the switch fluorescence ratio came out at 1.19 ± 0.037. In the case of CGGGCTTGGC it was 1.01 ± 0.0022; in that of AGGGGCTATT, 1.01 ± 0.014; in that of TACCAGCGCT, 0.993 ± 0.058. As for GTTGATTTAT, the figure is 0.983 ± 0.024. As for GGGGTTATCG, the figure is 0.99 ± 0.029; as for CGCGTATGTT, 0.985 ± 0.026. On to GGTCTGGGGA, for which the switch fluorescence ratio was determined as 1.024 ± 0.0073.

Turning to TCACAGCTGG, the switch fluorescence ratio came to 1.04 ± 0.016. As for TAAGGATATG, the figure is 1.01 ± 0.0069; as for GGTTGGTTTC, 1.01 ± 0.055. In the case of TTGGGGCCCA it was 1 ± 0.022; in that of GGGTGCATGT, 0.99 ± 0.02. As for GGGTGAGATA, the figure is 1.07 ± 0.011; as for GAGTTTTATG, 0.9631 ± 0.0025. TTCCTTTTTT: the switch fluorescence ratio came to 1.03 ± 0.065. In the case of CGATGATTGT it was 1.03 ± 0.059; in that of TGATTTTTTG, 0.969 ± 0.03; in that of TGTTGTGTGG, 1.02 ± 0.027. As for TTTGCGCTTT, the figure is 1.1 ± 0.084; as for TGTTTAGTTT, 1.01 ± 0.033. In the case of AATACGTGGA it was 1.029 ± 0.0036; in that of TTCGGGTTTA, 0.994 ± 0.055; in that of CTGTAAGTGG, 0.989 ± 0.017. For GACGAAGATC, the switch fluorescence ratio came to 1.11 ± 0.016. In the case of ATGGTAACGG it was 0.965 ± 0.042; in that of AGATTGTACA, 1.02 ± 0.02; in that of ATAAAGACTT, 0.9755 ± 0.0058.

In the case of TAGTGTGGGG, the switch fluorescence ratio was found to be 1.04 ± 0.034. As for TATTTATTGC, the figure is 1.01 ± 0.037; as for TTTTGCTTTT, 0.998 ± 0.027; as for TTCACGCTAG, 1.0378 ± 0.00056. As for ACACTTAGCT, the figure is 1.07 ± 0.025; as for GCACTTGGTG, 1.02 ± 0.024; as for TTTTGACGTT, 1.04 ± 0.042. With CTGTCCTTTT, the switch fluorescence ratio is 1.11 ± 0.17. In the case of ATTCTCACGT, the switch fluorescence ratio is 1.06 ± 0.021. As for GGGGGGTAGT, the figure is 1.02 ± 0.067; as for CTTCATGCTT, 1.02 ± 0.048; as for ATATCCGGTT, 1 ± 0.041.

On to GGGCTTGGGG, for which the switch fluorescence ratio is 0.999 ± 0.031. In the case of GGTTTGGGG it was 1.03 ± 0.016; in that of TGTGCGTGAG, 0.9776 ± 0.0015; in that of AAATTAAAAG, 0.984 ± 0.031.

Consider TGAAGCCAGT, for which the switch fluorescence ratio turned out to be 1 ± 0.024. As for CAAAAGGGGT, the figure is 1.004 ± 0.0063. With GGTTTCATAT, the switch fluorescence ratio came to 0.996 ± 0.026.

With CAGAGAGCGT, the switch fluorescence ratio stood at 1.008 ± 0.0068. As for TGATCAGATC, the figure is 1 ± 0.026; as for AACGTGGCGG, 0.988 ± 0.018; as for TTGAAAATGT, 0.96 ± 0.0076. As for TTCTACAGTA, the figure is 1.036 ± 0.0059; as for CTGGATGGTG, 0.98 ± 0.051. CGGGGTTGTG: the switch fluorescence ratio is 0.966 ± 0.014. In the case of GTGTGGAAGA it was 1.019 ± 0.0054. In the case of GCTACTGGCA it was 1.003 ± 0.0077.

For TACTAATTGG, the switch fluorescence ratio worked out at 0.9961 ± 0.0086. In the case of GACAATTAGT it was 1.04 ± 0.0079. For GTTGGTTGTG, the switch fluorescence ratio came to 0.981 ± 0.0053. As for GGGGTTCCGT, the figure is 1 ± 0.025. As for TCCATTTGGA, the figure is 1.02 ± 0.052. As for CGTCGCGTAT, the figure is 1.03 ± 0.021. In the case of GATGGCCACG, the switch fluorescence ratio stood at 0.9881 ± 0.0047. In the case of TGGGGCTTTT it was 1.02 ± 0.053.

In the case of GGGGTCTTAT, the switch fluorescence ratio was 0.996 ± 0.038. As for AATTTGTCCG, the figure is 0.992 ± 0.041; as for GGGGCGTTTT, 0.998 ± 0.023; as for TCTTTAATGG, 1.01 ± 0.042. As for CATTGTTGAT, the figure is 0.989 ± 0.017; as for TTGGGCCTCT, 1.01 ± 0.029; as for GGGGACATGC, 0.982 ± 0.078.

As for TTTATTAATG, the switch fluorescence ratio is 1.01 ± 0.026. In the case of GCCGGGAAAC it was 1.043 ± 0.0036; in that of TGTCGGCGGT, 1.05 ± 0.065; in that of GAGTTTTGCG, 1.03 ± 0.093. In the case of GAATGAAAAT it was 0.997 ± 0.022; in that of TGAGATTTTT, 0.975 ± 0.048. In the case of CTTAGGGCAC it was 1.05 ± 0.016; in that of GATGTTGGAA, 0.997 ± 0.034. Take AAGTTCATCT: the switch fluorescence ratio was found to be 1 ± 0.07.

As to TGGGCCCATT, the switch fluorescence ratio was 1.02 ± 0.076. In the case of CGCAAAGATT it was 1.06 ± 0.024; in that of AGGTACAGAC, 1.12 ± 0.024.

For the sequence TTATTGGGTC, the switch fluorescence ratio is 1.002 ± 0.01. As for GATGCGGGGG, the figure is 1.02 ± 0.039; as for AGAAAAAGGC, 1.02 ± 0.065; as for CGTAACAATG, 1.1 ± 0.034. In the case of CAGAAATTGG it was 1.013 ± 0.01; in that of AGGTGGGTCT, 0.991 ± 0.011. In the case of CTGGATAGAA it was 1.01 ± 0.033; in that of CTCGGGTATG, 0.9791 ± 0.0043. CCAGGGTCGC: the switch fluorescence ratio came to 0.9965 ± 0.0067.

As to GATTTTGGGA, the switch fluorescence ratio came to 0.9815 ± 0.0068. Regarding GGGCCTGGGG, the switch fluorescence ratio amounted to 0.998 ± 0.048.

Consider GCGTAAGTTC, for which the switch fluorescence ratio was determined as 0.981 ± 0.011.

For ATGATGGGCC, the switch fluorescence ratio was 1 ± 0.041. As for TCTTAAAGGT, the figure is 0.986 ± 0.026; as for TGAGGGGGGT, 0.976 ± 0.025. Consider TAGGTAGGCT, for which the switch fluorescence ratio stood at 0.974 ± 0.025. As for AAAAACGCTA, the figure is 1.14 ± 0.026. As for TTGTTTAAGT, the figure is 1.001 ± 0.0081; as for GCTTTAAAAT, 1.004 ± 0.0088; as for TGAACTGTTC, 1.04 ± 0.069. In the case of GGAATTTAAT it was 0.998 ± 0.0014. GCCTATTTTG: the switch fluorescence ratio is 0.962 ± 0.07. In the case of TTCGGTTCGT it was 0.98 ± 0.066; in that of TCTGAGTTCA, 0.987 ± 0.019; in that of CATTTGGAAT, 1.7 ± 0.97. As for AAGGGCCAAT, the figure is 1 ± 0.022.

On to CAGAGGGTGT, for which the switch fluorescence ratio was 1.12 ± 0.032. In the case of GTTGCAGCGC it was 0.982 ± 0.013.
